In patent US8026342B2, “Compositions and methods for binding sphingosine-1-phosphate” (Lpath, Inc., priority 2006, dated 2011):

Experiments:
CNV and vascular leakage = assay: Vascular leakage and CNV area after laser rupture of Bruch's membrane; format: in vivo, C57BL/6 mice; settings: 5 μg intraocular
Procedure: C57BL/6 mice (n=10) underwent laser rupture of Bruch's membrane in 3 locations in each eye and were given an intraocular injection of 5 μg of sonepcizumab in one eye and vehicle in the contralateral eye. At one week after laser rupture, the mice were given an intraperitoneal injection of 12 μl/g body weight of 1% fluorescein sodium and were euthanized 5 minutes later. The eyes were removed and fixed in PBS-buffered formalin at room temperature for 5 hours. Then the retinas were dissected, washed, and incubated with primary anti-PECAM-1. The retinas were then washed, incubated with secondary antibody (goat anti-rat IgG conjugated with rhodamine), and then flat mounted.
Quantification of CNV lesion area is measured by PECAM-1 staining. Quantification of vascular leakage is measured by fluorescein sodium staining. The total area of leakage from CNV=CNV+leakage (green)−area of CNV (red). Values represent the mean±SEM for n=10 mice/group. […] This is a 50% reduction in neovascularization (p-0.018). […] This is approximately a 38% reduction (p-0.017) in blood vessel leakage.

[1] = system: experimental autoimmune encephalomyelitis; assay: MOG35-55 induced EAE model of multiple sclerosis; format: in vivo, C57BL/6J mice
Procedure: Experimental protocol—the following experiments were conducted in the laboratory of Dr. Howard Weiner in collaboration with Lpath, Inc. A peptide fragment of myelin oligodendrocyte glycoprotein (MOG35-55; […] (SEQ ID NO: 52)) is used to cause experimental EAE in mice. Mendel, I. et al., A myelin oligodendrocyte glycoprotein peptide induces typical chronic experimental autoimmune encephalomyelitis in H-2b mice: fine specificity and T cell receptor V beta expression of encephalitogenic T cells, Eur J Immunol. 1995 July; 25(7):1951-9. EAE was induced in mice by immunization with a peptide corresponding to amino acids 35-55 of myelin oligodendrocyte glycoprotein (MOG) peptide (MOG35-55) to induce chronic experimental autoimmune encephalomyelitis (EAE). Following immunization with MOG35-55, mice develop an acute episode of EAE that is followed by a gradually developing progressive disease thought to model several features of progressive multiple sclerosis. Mice were treated with antibody to S1P and treated mice were followed to study the effects of S1P-specific antibody on the clinical manifestations of this acute model of EAE. At the end of the experiment, treated mice were also used to analyze the effect of anti-S1P administration on the immune response.
In a first set of experiments, using 10 mice per group with an average weight of 20 gr, EAE was induced in C57BL/6J mice with 150 ug/mouse MOG35-55 in CFA along with […] pertussis toxin on days 0 and 2. Anti-S1P antibody LT1002 (Sphingomab™) was administered i.v. at a dosage of 75 mg/Kg on day-1, followed by i.p. dosing at 25 mg/Kg every 2 days. Treated mice were followed for 25 days to study the effects of S1P-specific antibodies on the clinical manifestations of this acute model of EAE. Clinical manifestations of the disease include flaccid tail, and limb paralysis which may be scored to give an objective evaluation of clinical symptoms. The standard evaluation of disease severity in the EAE model measures clinical behavior on a 0-6 scale: 0) normal; 1) flaccid tail; 2) abnormal gait, hind leg weakness; 3) partial paralysis, severe ataxia; 4) minimal hind leg movement after painful stimulus; 5) no hind leg movement; 6) moribund state with little or no movement. Means were compared between groups to determine the effect of treatment on clinical scores and body weight gain. Statistical significance of clinical scores and weight were resolved using biostatistical analysis.
At day 17, two representative mice were sacrificed to study the cellular immune response (proliferation and cytokines) and to analyze CNS pathology. Spinal cords were dissected and sectioned. Sections were stained with hematoxylin and eosin (H&E) to reveal inflammatory cells, with Luxol to visualize myelin, or with silver stain to visualize axons. Total levels of CD4+FoxP3+Treg cells were evaluated by FACS analysis of blood samples taken from the tail on day 17. At day 25, treated mice were analyzed to see the effect of anti-S1P administration on the immune response.
Injection of synthetic MOG peptide (amino acids 35-55 of myelin oligodendrocyte glycoprotein, referred to as MOG35-55) causes mice to develop significant specific T cell responses in addition to neurological symptoms. Spahn et al., (1999) Eur. J. Immunol 29:4060-4071. Anti-S1P administration was associated with a significant decrease in this proliferative recall response to MOG35-55. Mice were primed by injections of MOG peptide. The spleens were removed and homogenized, and splenocytes were pulsed with different amounts of MOG peptide. Subsequently, cells were pulsed with radiolabel and incubated before cells were harvested and label incorporation was assessed by scintillation counting. […] As measured in cpm, the recall proliferative response was decreased by approximately 36%, 38% and 22% after anti-S1P antibody treatment (at 4 ug/ml, 20 ug/ml and 100 ug/ml of MOG35-55, respectively).

[2] = 75 mg/Kg i.v. day -1, then 25 mg/Kg i.p. every 2 days

LT1009: humanized anti-S1P IgG1/kappa mAb with Cys to Ala in HCDR2, light chain with 5 backmutations; SEQ ID NO: 31/32
reduction in blood vessel leakage vs saline (CNV and vascular leakage): ~38%
reduction in neovascularization vs saline (CNV and vascular leakage): 50%
area of choroidal neovascularization (PECAM-1) (CNV and vascular leakage; one week after laser): approximately 0.015 mm^2
area of leakage from choroidal neovascularization (fluorescein) (CNV and vascular leakage; one week after laser): approximately 0.125 mm^2

B1: LT1002: murine anti-S1P monoclonal antibody, IgG1 kappa, from hybridoma clone 306D326.26 (antibody, listed as Mus sp., V domains shown)
VH: QAHLQQSDAELVKPGASVKISCKVSGFIFIDHTIHWMKQRPEQGLEWIGCISPRHDITKYNEMFRGKATLTADKSSTTAYIQVNSLTFEDSAVYFCARGGFYGSTIWFDFWGQGTTLTVS
VL: ETTVTQSPASLSMAIGEKVTIRCITTTDIDDDMNWFQQKPGEPPNLLISEGNILRPGVPSRFSSSGYGTDFLFTIENMLSEDVADYYCLQSDNLPFTFGSGTKLEIK
decrease in recall proliferative response to MOG35-55 (cpm) ([1]; 4 ug/ml MOG35-55): approximately 36%
decrease in recall proliferative response to MOG35-55 (cpm) ([1]; 20 ug/ml MOG35-55): ~38%
decrease in recall proliferative response to MOG35-55 (cpm) ([1]; 100 ug/ml MOG35-55): ~22%
EAE development [1, 2]: significant inhibition
EAE severity score (0-6 scale) at plateau [1, 2]: approximately 2
circulating lymphocytes ([1]; antibody-treated animals): approximately 10%
demyelination in spinal cord ([1]; antibody-treated animals): less than 1%
spleen CD4+ T cells, of lymphocytes in spleen ([1]; antibody-treated animals): approximately 7.6%
axonal loss ([1]; antibody-treated mice): less than 2%
CD4+CD25+Foxp3+ Treg in spleen ([1]; mouse, in vivo): significant increase
IFNγ secretion by splenocytes upon MOG35-55 stimulation ([1]; mouse, in vivo): lower levels
IL-10 secretion by splenocytes upon MOG35-55 stimulation ([1]; mouse, in vivo): higher levels
IL-17 secretion by splenocytes upon MOG35-55 stimulation ([1]; mouse, in vivo): lower levels
circulating CD4+CD25+Foxp3+ Treg cells ([1]; mouse, in vivo): statistically nonsignificant increase
decrease in spleen CD4+ T cells after antibody treatment ([1]; vs control animals): ~35%
decrease in circulating lymphocytes after antibody treatment ([1]; vs control animals with EAE): ~26%
decrease in axonal loss after treatment ([1]; vs untreated controls with EAE): ~91%
decrease in demyelination after treatment ([1]; vs untreated controls with EAE): ~92%
decrease in number of inflammatory cells/mm^2 in spinal cords ([1]; vs untreated controls with EAE): about 85%
